Changes are numbered by the printed parent chain. Names may count otherwise. “And” between values parts separate entries of the source, which are not always exact repeats. Equal values may be shown once.

Results on 21 molecules are retold here after publication PMC12439581 (mAbs, 2025).

The labels stand for the following.
T1: biotinylated α-cobratoxin from Naja kaouthia (Naja kaouthia, biotin through amine coupling (NHS-PEG4-Biotin), sites not stated)
T1 chain: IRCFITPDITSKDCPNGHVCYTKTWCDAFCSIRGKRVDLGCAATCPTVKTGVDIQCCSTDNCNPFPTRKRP

B1: 368_01_C05 Fab with the CDR-L3 glycosylation site at Asn95 removed (Fab, V domains shown)
VH: QVQLVQSGAEVKKPGSSVKVSCKASGGTFSSYAISWVRQAPGQGLEWMGGIIPIFGTANYAQKFQGRVTITADESTSTAYMELRSLRSDDTAVYYCARDNLGYCSGGSCYSDYYYYYMDVWGQGTLVTVSS
VL: NFMLTQPHSVSESPGKTVTISCTRSSGSIASTYVHWYQQRPGSAPTTVIYEDNQRPSGVPDRFSGSIDSSSNSASLTISGLKTEDEADYYCQSYDSSSGSVVFGGGTKLTVL
notes: also called parent mAb; parental mAb
B2: E01 Fab (Fab, V domains shown)
VH: B1 VH
VL: NFMLTQPRSVSESPGKTVTISCTRSSGSIGSDYVHWYQQRPGSSPTTVIYEDNRRPSGVPDRFSGSIASSANSASLTISGLRPEDEADYYCQSYDSTTNHVVFGGGTKVTVL
B3: A12 Fab (Fab, V domains shown)
VH: B1 VH
VL: B1 VL with I20F, S28R, A30V, T32D, S98N, G99A, S100Y, L109V
B4: B11 Fab (Fab, V domains shown)
VH: B1 VH
VL: SYELTQPPSVSVAPGQTATITCGGHNIGSNIVHWYHQKPGQAPELVISHNTNRPSGIPERFSGSNSGSTATLTISRVEAVDEADYYCQVWDSSSEHVVFGGGTKVTVL
B5: D11_Y49A scFv (scFv, V domains shown)
VH: B1 VH
VL: B1 VL with H8R, A30G, T32D, A44S, Y50A, S96R, S98N, G99H, S100E
notes: source: E. coli BL21(DE3)
B6: A01 scFv (scFv, V domains shown)
VH: B1 VH
VL: SYELTQPPSVSVAPGRTATITCEGDNIGQQIVHWYQQKPGQAPVAVISSDSDRPSGIPERFSGSNSGNTATLTISRVEAGDEADYYCQVWDSGSDHVVFGGGTKVTVL
B7: D11_Y49S scFv (scFv, V domains shown)
VH: B1 VH
VL: B1 VL with H8R, A30G, T32D, A44S, Y50S, S96R, S98N, G99H, S100E
notes: source: E. coli BL21(DE3)
B8: D11_E50A scFv (scFv, V domains shown)
VH: B1 VH
VL: B1 VL with H8R, A30G, T32D, A44S, E51A, S96R, S98N, G99H, S100E
notes: source: E. coli BL21(DE3)
B9: D11 scFv (scFv, V domains shown)
VH: B1 VH
VL: B1 VL with H8R, A30G, T32D, A44S, S96R, S98N, G99H, S100E
B10: A01 Fab (Fab, V domains shown)
VH: B1 VH
VL: B6 VL
B11: G09 Fab (Fab, V domains shown)
VH: B1 VH
VL: SYELTQPPSVSVAPGRTATITCEGDNIGQQIVHWYRQKSDQAPVVVVYDGSRRPSGIPERFSGSNSGNTATLTISRVEAGDEADYYCQVWDITSDHVVFGGGTQLTVL
B12: A12 Fab (Fab, V domains shown)
VH: B1 VH
VL: B1 VL with I20F, S28R, A30V, T32D, S98N, G99A, S100Y, L109V
B13: C05 Fab, parental mAb 368_01_C05, with the N-glycosylation site of CDR-L3 removed (C05-NS) (Fab, V domains shown)
VH: B1 VH
VL: B1 VL
B14: A04 Fab (Fab, V domains shown)
VH: B1 VH
VL: SYELTQPPSMSVAPGQTARITCGGDYIGGESVHWYQQKPGRAPVAVVYDDTHRPSGIPERFSGANSGNTATLTISKVEAGDEADYYCQVWDVSSDHVVFGGGTKLTVL
B15: B11 Fab (Fab, V domains shown)
VH: B1 VH
VL: B4 VL
B16: E01 Fab (Fab, V domains shown)
VH: B1 VH
VL: B2 VL
B17: A01 scFv with His95b (CDR-L3) substituted to alanine (scFv, V domains shown)
VH: B1 VH
VL: B6 VL with H96A
notes: also called A01-H95bA; source: E. coli BL21(DE3), in culture supernatant
B18: D11 scFv with C-terminal 6xHis-FLAG extension (scFv, V domains shown)
VH: B1 VH
VL: B1 VL with H8R, A30G, T32D, A44S, S96R, S98N, G99H, S100E
notes: also called original D11; source: E. coli BL21(DE3); culture supernatant (DELFIA); purified (HisTrap, SEC)
B19: A01 scFv with C-terminal 6xHis-FLAG extension (scFv, V domains shown)
VH: B1 VH
VL: B6 VL
notes: also called original A01 scFv; source: E. coli BL21(DE3); culture supernatant (DELFIA); purified (HisTrap, SEC)
B20: D11 scFv with serine at position 32 (CDR-L1) and histidine at position 49 (FWR-2) (scFv, V domains shown)
VH: B1 VH
VL: B1 VL with H8R, A30G, T32D, Y33S, A44S, Y50H, S96R, S98N, G99H, S100E
notes: also called D11-Y32S-Y49H (name built from the text: serine at position His32 of D11-Y32H-Y49H); source: E. coli BL21(DE3), in culture supernatant
B21: A01 scFv with His34 (CDR-L1) substituted to alanine (scFv, V domains shown)
VH: B1 VH
VL: B6 VL with H33A
notes: also called A01-H34A; source: E. coli BL21(DE3), in culture supernatant

Sequence of biotinylated α-bungarotoxin from Bungarus multicinctus (Bungarus multicinctus) (P60615 22-95): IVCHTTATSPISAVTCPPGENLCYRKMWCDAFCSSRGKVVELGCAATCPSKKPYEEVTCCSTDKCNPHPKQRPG
T3 sequence (C0HJD7 whole entry): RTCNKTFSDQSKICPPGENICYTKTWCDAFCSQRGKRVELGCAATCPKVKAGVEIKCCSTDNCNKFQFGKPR

In the first test the target is T2, biotinylated α-cobratoxin from Naja kaouthia (Naja kaouthia, UniProt P01391). The experiment in a line: BLI. To be noted: both partners purified.
B1: the binding result is on record as “binds”.

For B2, the binding result was “binds”.

B3: the binding result is “binds”.

On to B4, for which the binding result is reported as “binds”.

Another test deals with biotinylated α-bungarotoxin from Bungarus multicinctus (Bungarus multicinctus, UniProt P60615). In words: BLI. To be noted: both partners purified.
Sequence of biotinylated α-bungarotoxin from Bungarus multicinctus (P60615 22-95): as the sequence (P60615 22-95) above
In the case of B4, the binding result is “binds”.

A further test concerns the target T1, biotinylated α-cobratoxin from Naja …. The experiment in a line: BLI. To be noted: both partners purified.
Usually Kd stands for the equilibrium constant for the complex coming apart. In general, koff refers to the first-order rate constant of dissociation. High values mean fast dissociation, low ones slow dissociation. The kon is a measure of how fast the partners come together. High values mean fast association, low ones slow association. Consider B5, for which binding was characterised by a dissociation constant (Kd) of 68.8 nM; the koff was 0.0018 s⁻¹ and 0.00355 s⁻¹; the kon came to 26200 M⁻¹ s⁻¹.

B6 displayed a Kd of 52.2 nM and a kon of 43200 M⁻¹ s⁻¹.

Turning to B7, the affinity, expressed as Kd, was 48.8 nM; the koff is 0.00195 s⁻¹ and 0.00416 s⁻¹; the kon was determined as 40000 M⁻¹ s⁻¹.

In the case of B8, the Kd is 158 nM; the koff was 0.00469 s⁻¹ and 0.0134 s⁻¹; the kon is 29700 M⁻¹ s⁻¹.

In the case of B9, binding was characterised by a dissociation constant (Kd) of 44.4 nM; the koff is 0.00177 s⁻¹ and 0.00189 s⁻¹; the kon is 39900 M⁻¹ s⁻¹.

A further test concerns the target T3, biotinylated α-elapitoxin-Dpp2d from Dendroaspis polylepis (Dendroaspis polylepis (black mamba), UniProt C0HJD7). The experiment in a line: BLI; […]; association at pH 7.4, dissociation at pH 7.4; 1:1 global fit, […]. Conditions: both partners purified. A general note: BLI is a label-free optical method that tracks binding on a fibre tip over time.
B10 registered a kon of 84000 M⁻¹ s⁻¹.

With B11, binding was put at a Kd of 1 ± 0.5 nM, the off-rate (koff) is 0.00015 s⁻¹ and the kon was determined as 156000 M⁻¹ s⁻¹.

In turn, B12 gave a Kd of 1.4 ± 1.2 nM, a koff of 0.00015 s⁻¹ and a kon of 140000 M⁻¹ s⁻¹.

In the case of B13, binding was put at a Kd of 4.6 ± 0.47 nM, the koff was 0.00034 s⁻¹ and the kon worked out at 76000 M⁻¹ s⁻¹.

The molecule B14 showed a Kd of 0.6 ± 0.4 nM, a koff of 9e-05 s⁻¹ and a kon of 161000 M⁻¹ s⁻¹.

B15 came in with a Kd of 1.4 ± 0.1 nM, a koff of 9e-05 s⁻¹ and a kon of 69000 M⁻¹ s⁻¹.

In turn, B16 gave a Kd of 1.3 ± 0.7 nM, a koff of 0.00014 s⁻¹ and a kon of 138000 M⁻¹ s⁻¹.

Another test addresses biotinylated α-bungarotoxin from Bungarus multicinctus (Bungarus multicinctus). The test is described as above. To be noted: both partners purified.
In the case of B12, the Kd was 202 ± 28.2 nM, the koff turned out to be 0.0093 s⁻¹ and the kon is 21000 M⁻¹ s⁻¹.

B16 registered a Kd of 271 ± 31.1 nM, a koff of 0.0173 s⁻¹ and a kon of 23000 M⁻¹ s⁻¹.

A further test has as its target T2, biotinylated α-cobratoxin from Naja …. The experiment in a line: DELFIA (dissociation-enhanced lanthanide fluorescence immunoassay). To be noted: one partner purified.
Turning to B17, the “fold reduction of the pH 7.4/pH 5.8 ratio against the A01 scFv” value is ~3 fold.

Consider B18, for which the “pH 7.4/pH 5.8 ratio of toxin remaining bound (TRF signal)” value is ~1.3 and the “pH 7.4/pH 5.8 ratio of toxin remaining bound (fold-difference)” value is ~1.2 fold.

For B19, the “pH 7.4/pH 5.8 ratio of toxin remaining bound (TRF signal)” value was ~12 and the “pH 7.4/pH 5.8 ratio of toxin remaining bound (fold-difference)” value is ~13.4 fold.

As to B20, the binding result was “binds”.

In the case of B21, the “pH 7.4/pH 5.8 ratio of toxin remaining bound (TRF signal)” value was 1.6.

For another test, the target named is T3, biotinylated α-elapitoxin-Dpp2d from …. In words: BLI; […]; association at pH 7.4, dissociation at pH 5.5; 1:1 global fit. Conditions: both partners purified.
Take B10: the koff was found to be 0.00295 s⁻¹.

Take B11: the koff worked out at 0.00035 s⁻¹.

B12 yielded a koff of 0.00036 s⁻¹.

On to B13, for which the koff was determined as 0.00072 s⁻¹.

Molecule B14 yielded a koff of 0.00024 s⁻¹.

Consider B15, for which the koff came out at 0.00049 s⁻¹.

B16 displayed a koff of 0.00049 s⁻¹.

The next test has as its target T1, biotinylated α-cobratoxin from Naja …. The experiment in a line: BLI. To be noted: both partners purified. This is another data set of the same source.
B10 gave a kon of 44000 M⁻¹ s⁻¹.

Take B11: the Kd was determined as 4.2 ± 2.8 nM and the kon stood at 71000 M⁻¹ s⁻¹.

For B12, the Kd came to 4.2 ± 0.9 nM; the koff is 0.00021 s⁻¹ and 0.00053 s⁻¹; the kon turned out to be 55000 M⁻¹ s⁻¹.

B13: the Kd amounted to 71.2 ± 5.4 nM; the koff is 0.00366 s⁻¹ and 0.00946 s⁻¹; the kon amounted to 51000 M⁻¹ s⁻¹.

In turn, B14 registered a Kd of 15.3 ± 14 nM and a kon of 62000 M⁻¹ s⁻¹.

In the case of B15, the Kd worked out at 5.7 ± 1.1 nM and the kon worked out at 59000 M⁻¹ s⁻¹.

In the case of B16, binding was put at a Kd of 6.6 ± 0.9 nM and the kon turned out to be 54000 M⁻¹ s⁻¹.
